Experimental findings from US20160108381A1, “DNA POLYMERASES AND MUTANTS THEREOF” (LIFE TECHNOLOGIES CORPORATION, priority 2001, published 2016) are described below.

Common to all, as to test: Steady-state kinetics, DNA- and RNA-dependent polymerase activity
Substrate in series [1]: Cc1cn([C@H]2C[C@H](O)[C@@H](COP(=O)(O)OP(=O)(O)OP(=O)(O)O)O2)c(=O)[nH]c1=O
In kind it is biochemical, Dictyoglomus thermophilum strain Rt46B.1. The settings on record: 72 °C. The method, then: (§1) Purification of CA2, B.EA1, Rt41A, Dth, Tok13B, Tok7B, and Rt69B DNA polymerase. E. coli cells (BL21SI, Invitrogen Corporation, Carlsbad, Calif.) bearing the plasmid pET26B with the gene for CA2, B.EA1, Rt41A, or Dth DNA polymerase were grown in 2.8-1 Fembach flasks in LB broth containing no salt and 50 μg/ml kanamycin at 37° C. After the culture reached an A590 of 1.2, expression of DNA polymerase was induced with 0.3 M NaCl for 3 hr. Cells were harvested by centrifugation and stored at −70° C. E. coli cells (BL21AI) bearing the plasmid pET14B with the gene for Tok13B, Tok7B, or RT69B DNA polymerase were grown in 2.8-1 Fembach flasks in LB broth containing 50 μg/ml ampicillin at 37° C. After the culture reached an A590 of 1.0, expression of DNA polymerase was induced by the addition of 0.2% arabinose for 3 hr. Cells were harvested by centrifugation and stored at −70° C.
(§2) Steady-state kinetic measurements.

Substrate in series [2]: Nc1nc2c(ncn2[C@H]2C[C@H](O)[C@@H](COP(=O)(O)OP(=O)(O)OP(=O)(O)O)O2)c(=O)[nH]1
In kind it is biochemical, Caldibacillus cellulovorans CompA.2. The settings on record: other: Table 34, DNA template, 1.5 mM MgCl2, 55 °C per footnote *. The method, then: as §1, §2
(§3) The catalytic rate constant kcat and the Michaelis constant KM were determined for both the DNA-dependent and RNA-dependent polymerase activities for the polypeptides of the invention and these parameters were compared to those of Tne DNA polymerase enzyme and […]™ II reverse transcriptase. […]

Substrate in series [3]: Cc1cn([C@H]2C[C@H](O)[C@@H](COP(=O)(O)OP(=O)(O)OP(=O)(O)O)O2)c(=O)[nH]c1=O
In kind it is biochemical, Caldibacillus cellulovorans CompA.2. The conditions noted are these: 55 °C, mean ± SD. As for the experimental part: as §1, §2, §3

Substrate in series [4]: Cc1cn([C@H]2C[C@H](O)[C@@H](COP(=O)(O)OP(=O)(O)OP(=O)(O)O)O2)c(=O)[nH]c1=O
In kind it is biochemical, Bacillus caldolyticus EA1.3. The conditions noted are these: 55 °C, mean ± SD. The method, then:
as §1, §2

Setting [5] is: other: Table 40, (dA)270•(dT)40, dTTP.
Where [6] appears, read: other: Table 40, (rA)250•(dT)30, dTTP.

Marks after values point to notes of the source that are not given here.

B1: Dictyoglomus thermophilum strain Rt46B.1 (Dth) DNA polymerase, SEQ ID NO:22 (Dictyoglomus thermophilum) (protein)
chain: MKYLLPTAAAGLLLLAAQPAMAMDIGINSDPKSLWDLFQENTEKESKRKILIIDGSSLIYRVYYALPPLKTKNGELTNALYGFIRILLKAVEDFNPDLVGVAFDRPEPTFRHVIYKEYKAKRPPMKDDLKAQIPWIREFLRLNDIPLLEEPGYEADDIIATIVNKYKDDLKYILSGDLDLLQLVSDKTFLIHPQKGITEFTIYDPKAVKDRFGVEPYKIPLYKVLVGDESDNIPGVNGIGPKKASKILEKISSVDEFKSKIKVLDSDLRELIEKNWNIIERNLELVTLKNIDKDLILKPFEIKRDEKVIDFLKRYELKSILQKLFPDLQEEENIEIKDVEEINFNEVEKEGYFAFKCLGDRAFEGISLSFKEGEGYFISPFDFNNEIRKKIENIISSENVKKIGSYIQRDLHFLNCKIKGDVFDVSLASYLLNPERQNHSLDILIGEYLNKTSFIPQKYAGYLFPLKSILEERIKNEGLEFVLYNIEIPLIPVLYSMEKWGIKVDKEYLKQLSDEFCERIKKLEEEIYELAGTRFNLNSPKQLSEVLFERLKLPSGKKGKTGYSTSSSVLQNLINAHPIVRKILQYRELYKLKSTYVDAIPNLVNPQTGRVHTKFNPTGTATGRISSSEPNLQNIPIKSEEGRKIRRAFVSEDGYFLVSLDYSQIELRIMAHLSQEPKLISAFQKGEDIHRRTASEIFGVPEEEVDDLLRSRAKAVNFGIIYGISSFGLSETVSITPEEAEKFIDSYFKHYPRVKLFIDKTIHEAREKLYVKTLFGRKRYIPEIKSINKQVRNAYERIAINAPIQGTAADIIKLAMIEIYKEIENKNLKSRILLQIHDELILEVPEEEMEFTPLMAKEKMEKVVELSVPLVVEISVGKNLAELK
What is called kcat is the maximal rate divided by the concentration of active sites. For B1, the kcat was 39 ± 15 s⁻¹ in series [1] (other: Table 40, (dA)270•(dT)40, dTTP, mean ± SD) and below 1 s⁻¹ in series [1] (other: Table 40, (rA)250•(dT)40, dTTP).

B2: Caldibacillus cellulovorans CompA.2 (CA2) DNA polymerase, SEQ ID NO:16 ([Caldibacillus] cellulovorans) (protein)
chain: MKYLLPTAAAGLLLLAAQPAMAMGKLILVDGNSVANRAFYAVRLLSTRGGLHTNAVYGFANMLLKLIEEERPTHFLVAFDAGKATFRHREYEAYKAGRLQTPPELSEQFPYIRELVRAFGVASGELEEYEADDMIGTLAKRAEAEGVDTLVVTGDRDLLQLVSDRVTVALTRKGITETERYDPARIREEYGFDPDRIRDLKGLMGDASDNLPGVPGVGEKTALKLLRQYGSLESVLEHASEIAGKLGENLRAHADAARLSKRLATIDCAVPLQSGWDWLRLGEPDRAALASLLRQLEFKSLLKRLGLDGTSADADVDGVRSSARPADEKRPRAVAVAEEGVDVRCPDRPEEVEEALSRLEAAQSVVVEVTGDNPHDGEVRGVAWWDGHTAYFIPFERLVQSDMRPLADWLADARRPKRTHDSHRAEVALFWHGLAFRGTSFCTHIAAYLLDPTESRHTLADLSRRYGLPPVPEAEDVYGKGAKFKVPDRDTLARYVGRKAALVARLVPLLEADLAACGMRSLFYDLELPLSSELAVMETVGVRVDAAALAAYGEELREAAAKVEREIYELAGTTFNIGSTKQLGEILFDKLGLPVVKKTKTGYSTDADVLEELAPYHPIVEKILHYRQLTKLQSTYIEGLLKEIRPQTGKIHTYYQQTIAATGRLSSQFPNLQNIPIRLEEGRKIRKAFVPSEPGWLMLAADYSQIELRVLAHVSGDERLKEAFRTGMDIHTKTAMDVFGVSEDRVDARMRRQAKAVNFGIIYGISDFGLAQNLNISRKEAAEFIRQYFAVFSGVKAYRERIVEQARRDGYVTTLLGRRRYLPDINASNYNLRSFAERTAMNTPIQGTAADIIKTAMVRLTRRMRDVGLKSRMLLQVHDELVFEVPPDELDAMRELVTDVMESAVPLDVPLKVDVSWGADWYAAK
Take B2: the kcat in series [2] was 200* s−1; in series [3] (setting [5]), 82 ± 9 s⁻¹; in series [3] (setting [6]) it was 48 ± 9 s⁻¹.

B3: Bacillus caldolyticus EA1.3 (B.EA1) DNA polymerase, SEQ ID NO:20 ([Bacillus] caldolyticus) (protein)
chain: MKYLLPTAAAGLLLLAAQPAMAMGLKKKLVLIDGSSVAYRAFFALPLLHNDKGIHTNAVYGFTMMLNKILAEEEPTHMLVAFDAGKTTFRHEAFQEYKGGRQQTPPELSEQFPLLRELLRAYRIPAYELENYEADDIIGTLAARAEQEGFEVKVISGDRDLTQLASPHVTVDITKKGITDIEPYTPEAVREKYGLTPEQIVDLKGLMGDKSDNIPGVPGIGEKTAVKLLKQFGTVENVLASIDEIKGEKLKETLRQHREMALLSKKLAAIRRDAPVELSLDDIVYQGEDREKVVALFKELGFQSFLEKMESPSSEEEKPLAKMAFTLADRVTEEMLADKAALVVEVVEENYHDAPIVGIAVVNEHGRFFLRPETALADPQFVAWLGDETKKKSMFDSKRAAVALKWKGIELCGVSFDLLLAAYLLDPAQGVDDVAAAAKMKQYEAVRSDEAVYGKGAKRAVPDEPVLAEHLVRKAAAIWALERPFLDELRRNEQDRLLVELEQPLSSILAEMEFAGVKVDTKRLEQMGEELAEQLRTVEQRIYELAGQEFNINSPKQLGVILFEKLQLPVLKKTKTGYSTSADVLEKLAPYHEIVENILHYRQLGKLQSTYIEGLLKVVRPDTKKVHTIFNQALTQTGRLSSTEPNLQNIPIRLEEGRKIRQAFVPSESDWLIFAADYSQIELRVLAHIAEDDNLMEAFRRDLDIHTKTAMDIFQVSEDEVTPNMRRQAKAVNFGIVYGISDYGLAQNLNISRKEAAEFIERYFESFPGVKRYMENIVQEAKQKGYVTTLLHRRRYLPDITSRNFNVRSFAERMAMNTPIQGSAADIIKKAMIDLNARLKEERLQARLLLQVHDELILEAPKEEMERLCRLVPEVMEQAVTLRVPLKVDYHYGSTWYDAK
In the case of B3, the figures for the kcat in series [4] (setting [5]) and in series [4] (setting [6]) were 73 ± 16 s⁻¹ and 43 ± 7 s⁻¹, respectively.
